Assay [1] has as its target CLDN3/4 endogenously expressed on LS513 and MCF7 cells. The experiment in a line: FACS dose curve, labelled mAb, LS513 cells.
In assay [2] the target is human CLDN6 fused to GFP, expressed on engineered HEK293T cells (human) (UniProt P56747). In words: FACS dose curve, labelled mAb, HEK293T-CLDN6-mGFP cells.
For assay [3], the target named is CLDN3/4 endogenously expressed on LS513 and MCF7 cells. The experiment in a line: FACS dose curve, labelled mAb, MCF7 cells.
The target in assay [4] is human CLDN6 fused to GFP, expressed on engineered HEK293T cells (human) (UniProt P56747). In words: FACS, 293T clone with human CLDN6, 0.3 ug Ab. (In general: A flow cytometer gives signals particle by particle.)
Assay [5] shares this target. In words: FACS, 293T clone with human CLDN6, 1.5 ug Ab.

The source of these data is patent US20220177583A1.

The term EC50 denotes the midpoint of the concentration-response curve. Read a high EC50 as a need for much substance.

B1: AB1 (antibody, V domains shown)
VH: QVQLQQSAAELARPGASVKMSCKASGYTFTTYTMHWVKQRPGQGLEWIGFINPSSGYTDYNQKFKDRTTLTADKSSSTVYMQLSSLTSEDSAVYYCANGDYYVAYWGQGTLVTVSA
VL: QIVLTQSPAIMSASLGERVTMTCTASSSVSSTYFHWYQQKPGSSPKLWIYSTSNLASGVPRRFSGSASGTSYSLTISSMEAEDAATYYCHQYHRSPLTFGAGTKLELK
With B1, the EC50 came out at 5000 nM in assay [1], 109 nM in assay [2] and 5000 nM in assay [3].

B2: AB11-2 (antibody, V domains shown)
VH: EVQLVESGGGLVQPGGSLRLSCAASGFTFSSFGMHWVRQAPGKGLEWVAYISSDSRTIYYADSVKGRFTISRDNAKNSLYLQMNSLRAEDTAVYYCARDYGRTYEAYWGQGTLVTVSS
VL: DIVMTQSPDSLAVSLGERATINCRASKSVSTSGYSYIHWYQQKPGQPPKLLIYLASNLESGVPDRFSGSGSGTDFTLTISSLQAEDVAVYYCQHSRELPLTFGQGTKLEIK
B2: the figures for the FACS signal in assay [4] and in assay [5] were 1290 and 2560, respectively.

B3: AB11-3 (antibody, V domains shown)
VH: EVQLVESGGGLVQPGGSLRLSCAASGFTFSSFGMHWVRQAPGKGLEWVAYISSDSRTIYYADSVKGRFTISRDNAKNSLYLQMNSLRAEDTAVYYCARDYGRTYEAYWGQGTLVTVSS
VL: DIVLTQSPDSLAVSLGERATINCRASKSVSTSGYSYIHWYQQKPGQPPKLLIYLASNLESGVPDRFSGSGSGTDFTLTISSVQAEDVAVYYCQHSRELPLTFGQGTKLELK
For B3, the values for the FACS signal in assay [4] and in assay [5] were 1010 and 2360, respectively.

B4: AB4 (antibody, V domains shown)
VH: QVQLQQSGAELARPGASVKMSCKASGYTFTSYTMHWIKQRPGQGQEWIGYINPSSTYTHYIKKFKDKATLTADKSSSTAYMQLRSLTSEDSAVYYCSRGELGGFAYWGQGTLVTVSA
VL: DVVMTQTPLSLPVSLGDQASISCRSSQSLVHSDGNTYLNWYLQKPGQSPKLLIYKVSNRFSGVPDRFSGSGSGTDFTLKIRRVEAEDLGVYFCSQSTHVPYTFGGGTKLEIK
As for B4, the EC50 is 730 nM in assay [1], 17 nM in assay [2] and 653 nM in assay [3].

B5: AB9-chim (antibody, V domains shown)
VH: EVQLQQSGPELVKPGASVKMSCKASGYRFTDYNMHWVKQSHGKSLEWIGYINPNNGGTNYNQNFKGKATLTVNKSSSTAYMELRSLTSEDSAAYYCARDYLYFFDCWGQGTTLTVSS
VL: DIQMTQSPASQSASLGESVTITCLASQTIGTWLAWYQQKPGKSPQLLIYAAASLADGVPSRFSGSGSGTRFSFKISSLQAEDFVSYYCQQLYSIPRTFGGGTKLEIK
Turning to B5, the FACS signal in assay [4] turned out to be 46700; in assay [5], 72000.

B6: AB11-chim (antibody, V domains shown)
VH: DVQLVESGGGLVQPRGSRKLSCAASGFTFSSFGMHWVRQAPEKGLEWVAYISSDSRTIYYADTVKGRFTISRDNPTNTLFLQMTSLRSEDTAMYYCARDYGRTYEAYWGQGTLVTVSA
VL: DIVLTQSPASLAVSLGQRATISCRASKSVSTSGYSYIHWYQQKPGQPPKLLIYLASNLESGVPARFSGSGSGTDFTLNIHPVEEEDAATYYCQHSRELPLTFGAGTKLELK
For B6, the FACS signal was 1670 in assay [4] and 3490 in assay [5].

B7: AB3 (antibody, V domains shown)
VH: EVKLEESGGGLVQPGGSMKLSCVASGFTFSNYWMNWVRQSPEKGLEWVAQIRLKSDNYATHYAESVKGRFTISRDDSKRSVYLQMNNLRAEDTGTYYCNDGPPSGCWGQGTTLIVSS
VL: DIQMTQSPASLSASVGETVTITCRISENIYSYLAWYQQKQGKSPQLLVYNAKILVEGVPSRFSGSGSGTQFSLKINSLQPEDFGNYYCQHHYTVPWTFGGGTKLEIK
As to B7, the concentration giving a half-maximal response (EC50) came to 5000 nM in assay [1], 604 nM in assay [2] and 5000 nM in assay [3].

B8: AB2 (antibody, V domains shown)
VH: EVKLEESGGGLVQPGGSMKLSCVASGFTFSDYWMNWVRQSPEKGLEWVAQIRLKSDNYATHYAESVKGRFTISRDDSKRSVYLQMNNLRAEDTGTYYCNDGPPSGCWGQGTTLIVSS
VL: DIQMTQSPASLSASVGETVTITCRISENIYSYLAWYQQKQGKSPQLLVYNAKILVEGVPSRFSGSGSGTQFSLKINSLQPEDFGNYYCQHHYTVPWTFGGGTKLEIK
Turning to B8, the concentration giving a half-maximal response (EC50) in assay [1] was determined as 5000 nM; in assay [2], 182 nM; in assay [3] it was 5000 nM.

B9: AB5 (antibody, V domains shown)
VH: EVQLQQSGPELVKPGASVKMSCKASGYIFTHYIMHWVKQKPGQGLEWIGCINPYNDGTKYNEKFKGKATLTSDKSSSTAYMELSSLTSEDSAVYYCARYYGYPYYSMDYWGQGTSVTVSS
VL: DVLMTQTPLSLPVSLGDQPSISCRSSQSIVHSNGNTYLDWYLQKPGQSPKLLIYKVSNRFSGVPDRFSGSGSGTDFTLKISRVEAEDLGVYYCFQGSHVPFTFGSGTRLEIK
As to B9, the EC50 in assay [1] was found to be 781 nM; in assay [2], 10 nM; in assay [3] it was 1480 nM.

B10: AB18-chim (antibody, V domains shown)
VH: QVQLKQSGPELEKPGASVKISCKASGYSFTGYNMNWVKQSNGKSLEWIGNIDPYYGGSTYNQKFTGKATLTVDKSSSTAYMQLKSLTSEDSAVYYCARERSGYVFSAMDYWGQGTSVTVSS
VL: NIMMTQSPSSLAVSAGEKVTMSCKSSQSVLFSSNQKNYLAWYQQKPGQSPRLLIYWASTRESGVPDRFTGSGSGTDFTLTISNVQAEDLAVYYCHQYLSSRTFGAGTKLELK
For the molecule B10, the FACS signal in assay [4] was determined as 73800; in assay [5], 135000.

B11: AB18-4 (antibody, V domains shown)
VH: QVQLVQSGAEVKKPGASVKVSCKASGYSFTGYNMNWVRQAPGQGLEWMGNIDPYYGGSTYAQKFQGRVTMTVDTSTSTVYMELSSLRSEDTAVYYCARERSGYVFSAMDYWGQGTLVTVSS
VL: DIVMTQSPDSLAVSLGERVTMNCKSSQSVLFSSNQKNYLAWYQQKPGQPPKLLIYWASTRESGVPDRFSGSGSGTDFTLTISSVQAEDVAVYYCHQYLSSRTFGQGTKLEIK
With B11, the FACS signal stood at 32400 in assay [4] and 54400 in assay [5].

B12: AB18-6 (antibody, V domains shown)
VH: QVQLVQSGAEVKKPGASVKISCKASGYSFTGYNMNWVRQAPGQGLEWIGNIDPYYGGSTYAQKFQGRATLTVDTSTSTAYMELSSLRSEDTAVYYCARERSGYVFSAMDYWGQGTLVTVSS
VL: DIVMTQSPDSLAVSLGERVTMNCKSSQSVLFSSNQKNYLAWYQQKPGQPPKLLIYWASTRESGVPDRFSGSGSGTDFTLTISSVQAEDVAVYYCHQYLSSRTFGQGTKLEIK
With B12, the FACS signal in assay [4] was 26900; in assay [5], 58500.

B13: AB4-9 (antibody, V domains shown)
VH: QVQLVQSGAEVKKPGASVKMSCKASGYTFTSYTMHWIRQAPGQGLEWIGYINPSSTYTHYIKKFKDRATLTADTSTSTAYMELSSLRSEDTAVYYCSRGELGGFAYWGQGTLVTVSS
VL: DVVMTQSPLSLPVTLGQPASISCRSSQSLVHSDGNTYLNWYQQRPGQSPRLLIYKVSNRFSGVPDRFSGSGSGTDFTLKISRVEAEDVGVYYCSQSTHVPYTFGQGTKLEIK
On to B13, for which the FACS signal in assay [4] stood at 37200; in assay [5], 56900.

B14: AB4-12 (antibody, V domains shown)
VH: QVQLVQSGAEVKKPGASVKMSCKASGYTFTSYTMHWIRQAPGQGQEWIGYINPSSTYTHYIKKFKDRATLTADKSTSTAYMELSSLRSEDTAVYYCSRGELGGFAYWGQGTLVTVSS
VL: DVVMTQSPLSLPVTLGQPASISCRSSQSLVHSDGNTYLNWYQQRPGQSPRLLIYKVSNRFSGVPDRFSGSGSGTDFTLKISRVEAEDVGVYYCSQSTHVPYTFGQGTKLEIK
Take B14: the FACS signal in assay [4] is 71100; in assay [5] it was 86200.

B15: AB4-11 (antibody, V domains shown)
VH: QVQLVQSGAEVKKPGASVKMSCKASGYTFTSYTMHWIRQAPGQGLEWIGYINPSSTYTHYIKKFKDRATLTADKSTSTAYMELSSLRSEDTAVYYCSRGELGGFAYWGQGTLVTVSS
VL: DVVMTQSPLSLPVTLGQPASISCRSSQSLVHSDGNTYLNWYQQRPGQSPRLLIYKVSNRFSGVPDRFSGSGSGTDFTLKISRVEAEDVGVYYCSQSTHVPYTFGQGTKLEIK
For the molecule B15, the FACS signal in assay [4] amounted to 37800; in assay [5], 61200.

B16: AB4-10 (antibody, V domains shown)
VH: QVQLVQSGAEVKKPGASVKMSCKASGYTFTSYTMHWIRQAPGQGQEWIGYINPSSTYTHYIKKFKDRATLTADTSTSTAYMELSSLRSEDTAVYYCSRGELGGFAYWGQGTLVTVSS
VL: DVVMTQSPLSLPVTLGQPASISCRSSQSLVHSDGNTYLNWYQQRPGQSPRLLIYKVSNRFSGVPDRFSGSGSGTDFTLKISRVEAEDVGVYYCSQSTHVPYTFGQGTKLEIK
B16: the FACS signal turned out to be 50800 in assay [4] and 77200 in assay [5].

B17: AB9-3 (antibody, V domains shown)
VH: QVQLVQSGAEVKKPGASVKMSCKASGYRFTDYNMHWVRQAPGQGLEWIGYINPNNGGTNYAQKFQGRATLTVDTSTSTAYMELSSLRSEDTAVYYCARDYLYFFDCWGQGTLLTVSS
VL: DIQMTQSPSSLSASVGDRVTITCLASQTIGTWLAWYQQKPGKAPKLLIYAAASLADGVPSRFSGSGSGTDFTFTISSLQPEDFVTYYCQQLYSIPRTFGQGTKLEIK
For B17, the values for the FACS signal in assay [4] and in assay [5] were 9500 and 24600, respectively.

B18: AB9-4 (antibody, V domains shown)
VH: QVQLVQSGAEVKKPGASVKMSCKASGYRFTDYNMHWVRQAPGQGLEWIGYINPNNGGTNYAQKFQGRATLTVDTSTSTAYMELSSLRSEDTAVYYCARDYLYFFDCWGQGTLLTVSS
VL: DIQMTQSPSSLSASVGDRVTITCRASQTIGTWLAWYQQKPGKAPKLLIYAAASLADGVPSRFSGSGSGTDFTFTISSLQPEDFVTYYCQQLYSIPRTFGQGTKLEIK
With B18, the FACS signal in assay [4] worked out at 15300; in assay [5], 34300.
